{"source": "patent US20190241661A1", "key": {"CD46, human (human) [1]": {"target": "CD46, human (human) (UniProt P15529)", "sequence (P15529 35-392)": "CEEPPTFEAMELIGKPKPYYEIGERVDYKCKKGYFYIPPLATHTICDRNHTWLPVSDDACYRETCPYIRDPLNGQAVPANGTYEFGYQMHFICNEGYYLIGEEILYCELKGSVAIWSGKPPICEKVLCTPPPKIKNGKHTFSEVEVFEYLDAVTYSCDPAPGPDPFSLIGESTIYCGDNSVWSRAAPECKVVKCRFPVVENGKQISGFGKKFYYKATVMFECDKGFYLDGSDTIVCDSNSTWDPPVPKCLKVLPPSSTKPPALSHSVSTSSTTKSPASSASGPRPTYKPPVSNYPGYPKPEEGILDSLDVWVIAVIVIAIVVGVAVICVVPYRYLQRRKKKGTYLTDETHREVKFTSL", "experiment": "flow cytometry; directly labelled antibody on wild-type SK-OV-3 cells"}, "CD46, human (human) [2]": {"target": "CD46, human (human) (UniProt P15529)", "experiment": "flow cytometry; directly labelled antibody on siRNA knockdown SK-OV-3 cells"}, "CD59, human (human) [3]": {"target": "CD59, human (human) (UniProt P13987)", "sequence (P13987 26-102)": "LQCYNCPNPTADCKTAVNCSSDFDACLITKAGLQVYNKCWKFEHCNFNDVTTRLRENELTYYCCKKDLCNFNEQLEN", "experiment": "flow cytometry; directly labelled antibody on wild-type SK-OV-3 cells"}, "CD59, human (human) [4]": {"target": "CD59, human (human) (UniProt P13987)", "experiment": "flow cytometry; directly labelled antibody on siRNA knockdown SK-OV-3 cells"}, "CD55, human (human) [5]": {"target": "CD55, human (human) (UniProt P08174)", "sequence (P08174 35-353)": "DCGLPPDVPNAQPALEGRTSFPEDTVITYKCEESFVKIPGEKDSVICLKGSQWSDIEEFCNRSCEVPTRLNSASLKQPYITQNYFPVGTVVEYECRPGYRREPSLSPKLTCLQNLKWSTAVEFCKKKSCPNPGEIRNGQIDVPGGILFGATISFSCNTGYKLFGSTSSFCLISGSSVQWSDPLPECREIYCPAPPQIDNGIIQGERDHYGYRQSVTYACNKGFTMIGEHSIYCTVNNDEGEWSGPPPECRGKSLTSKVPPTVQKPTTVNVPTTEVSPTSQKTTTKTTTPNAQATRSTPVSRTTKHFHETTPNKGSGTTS", "experiment": "flow cytometry; directly labelled antibody on wild-type SK-OV-3 cells"}, "CD55, human (human) [6]": {"target": "CD55, human (human) (UniProt P08174)", "experiment": "flow cytometry; directly labelled antibody on siRNA knockdown SK-OV-3 cells"}, "CD46, human (human) [7]": {"target": "CD46, human (human) (UniProt P15529)", "experiment": "FACS titration on carcinoma cells; dilution just sufficient for a saturated staining"}, "CD46, human (human) [8]": {"target": "CD46, human (human) (UniProt P15529)", "experiment": "FACS titration on carcinoma cells, secondary antibody; dilution 1/1000, final 0.1 µg/ml"}, "CD46, human (human) [9]": {"target": "CD46, human (human) (UniProt P15529)", "experiment": "FACS titration on carcinoma cells, secondary antibody; dilution 1/500, final 0.2 µg/ml"}, "CD46, human (human) [10]": {"target": "CD46, human (human) (UniProt P15529)", "experiment": "FACS titration on carcinoma cells, secondary antibody; dilution 1/10, final 10 µg/ml"}, "CD46, human (human) [11]": {"target": "CD46, human (human) (UniProt P15529)", "experiment": "FACS titration on carcinoma cells, secondary antibody; dilution 1/5000, final 0.02 µg/ml"}, "CD46, human (human) [12]": {"target": "CD46, human (human) (UniProt P15529)", "experiment": "FACS titration on carcinoma cells, secondary antibody; dilution 1/100, final 1 µg/ml"}, "CD46, human (human) [13]": {"target": "CD46, human (human) (UniProt P15529)", "experiment": "FACS titration on carcinoma cells, secondary antibody; dilution 1/10000, final 0.01 µg/ml"}, "CD46, human (human) [14]": {"target": "CD46, human (human) (UniProt P15529)", "experiment": "FACS titration on carcinoma cells, secondary antibody; dilution 1/10000, final 0.1 µg/ml"}, "CD46, human (human) [15]": {"target": "CD46, human (human) (UniProt P15529)", "experiment": "FACS titration on carcinoma cells, secondary antibody; dilution 1/500, final 2 µg/ml"}, "CD46, human (human) [16]": {"target": "CD46, human (human) (UniProt P15529)", "experiment": "FACS titration on carcinoma cells, secondary antibody; dilution 1/10, final 100 µg/ml"}, "CD46, human (human) [17]": {"target": "CD46, human (human) (UniProt P15529)", "experiment": "FACS titration on carcinoma cells, secondary antibody; dilution 1/100, final 10 µg/ml"}, "CD46, human (human) [18]": {"target": "CD46, human (human) (UniProt P15529)", "experiment": "FACS titration on carcinoma cells, secondary antibody; dilution 1/1000, final 1 µg/ml"}, "CD46, human (human) [19]": {"target": "CD46, human (human) (UniProt P15529)", "experiment": "FACS titration on carcinoma cells, secondary antibody; dilution 1/5000, final 0.2 µg/ml"}, "CD55, human (human) [20]": {"target": "CD55, human (human) (UniProt P08174)", "experiment": "FACS titration on carcinoma cells, secondary antibody; dilution 1/10000, final 0.1 µg/ml"}, "CD55, human (human) [21]": {"target": "CD55, human (human) (UniProt P08174)", "experiment": "FACS titration on carcinoma cells, secondary antibody; dilution 1/500, final 2 µg/ml"}, "CD55, human (human) [22]": {"target": "CD55, human (human) (UniProt P08174)", "experiment": "FACS titration on carcinoma cells; dilution just sufficient for a saturated staining"}, "CD55, human (human) [23]": {"target": "CD55, human (human) (UniProt P08174)", "experiment": "FACS titration on carcinoma cells, secondary antibody; dilution 1/10, final 100 µg/ml"}, "CD55, human (human) [24]": {"target": "CD55, human (human) (UniProt P08174)", "experiment": "FACS titration on carcinoma cells, secondary antibody; dilution 1/100, final 10 µg/ml"}, "CD55, human (human) [25]": {"target": "CD55, human (human) (UniProt P08174)", "experiment": "FACS titration on carcinoma cells, secondary antibody; dilution 1/1000, final 1 µg/ml"}, "CD55, human (human) [26]": {"target": "CD55, human (human) (UniProt P08174)", "experiment": "FACS titration on carcinoma cells, secondary antibody; dilution 1/5000, final 0.2 µg/ml"}, "CD59, human (human) [27]": {"target": "CD59, human (human) (UniProt P13987)", "experiment": "FACS titration on carcinoma cells, secondary antibody; dilution 1/10000, final 0.1 µg/ml"}, "CD59, human (human) [28]": {"target": "CD59, human (human) (UniProt P13987)", "experiment": "FACS titration on carcinoma cells, secondary antibody; dilution 1/500, final 2 µg/ml"}, "CD59, human (human) [29]": {"target": "CD59, human (human) (UniProt P13987)", "experiment": "FACS titration on carcinoma cells; dilution just sufficient for a saturated staining"}, "CD59, human (human) [30]": {"target": "CD59, human (human) (UniProt P13987)", "experiment": "FACS titration on carcinoma cells, secondary antibody; dilution 1/10, final 100 µg/ml"}, "CD59, human (human) [31]": {"target": "CD59, human (human) (UniProt P13987)", "experiment": "FACS titration on carcinoma cells, secondary antibody; dilution 1/100, final 10 µg/ml"}, "CD59, human (human) [32]": {"target": "CD59, human (human) (UniProt P13987)", "experiment": "FACS titration on carcinoma cells, secondary antibody; dilution 1/1000, final 1 µg/ml"}, "CD59, human (human) [33]": {"target": "CD59, human (human) (UniProt P13987)", "experiment": "FACS titration on carcinoma cells, secondary antibody; dilution 1/5000, final 0.2 µg/ml"}}}
{"substance": "anti-CD46-FITC antibody (BD Pharmingen, Cat. No. 555949)", "values": [{"measurement": "FACS signal (FITC)", "setting": "CD46, human (human) [1]", "value": 683, "unit": "FITC signal"}, {"measurement": "FACS signal (FITC)", "setting": "CD46, human (human) [2]", "value": 662, "unit": "FITC signal"}]}
{"substance": "anti-CD59-PE antibody (BD Pharmingen, Cat. No. 555764)", "values": [{"measurement": "FACS signal (PE)", "setting": "CD59, human (human) [3]", "value": 1190, "unit": "PE signal"}, {"measurement": "FACS signal (PE)", "setting": "CD59, human (human) [4]", "value": 649, "unit": "PE signal"}]}
{"substance": "anti-CD-55-APC antibody (BD Pharmingen, Cat. No. 555696)", "values": [{"measurement": "FACS signal (APC)", "setting": "CD55, human (human) [5]", "value": 1450, "unit": "APC signal"}, {"measurement": "FACS signal (APC)", "setting": "CD55, human (human) [6]", "value": 275, "unit": "APC signal"}]}
{"substance": "anti-human CD46 antibody #383, clone M177 (Hycult, HM2103)", "values": [{"measurement": "1x conc. (1-time saturating concentration)", "setting": "CD46, human (human) [7]", "value": 0.3, "unit": "µg/mL"}, {"measurement": "Geom. Mean. FITC (geom. mean FITC)", "setting": "CD46, human (human) [8]", "value": 50000}, {"measurement": "Geom. Mean. FITC (geom. mean FITC)", "setting": "CD46, human (human) [9]", "value": 74000}, {"measurement": "Geom. Mean. FITC (geom. mean FITC)", "setting": "CD46, human (human) [10]", "value": 84000}, {"measurement": "Geom. Mean. FITC (geom. mean FITC)", "setting": "CD46, human (human) [11]", "value": 15800}, {"measurement": "Geom. Mean. FITC (geom. mean FITC)", "setting": "CD46, human (human) [12]", "value": 81800}, {"measurement": "Geom. Mean. FITC (geom. mean FITC)", "setting": "CD46, human (human) [13]", "value": 14000}]}
{"substance": "anti-human CD46 antibody #386, clone MEM258 (AbD Serotec, MCA2113)", "values": [{"measurement": "Geom. Mean. FITC (geom. mean FITC)", "setting": "CD46, human (human) [14]", "value": 53500}, {"measurement": "Geom. Mean. FITC (geom. mean FITC)", "setting": "CD46, human (human) [15]", "value": 75500}, {"measurement": "1x conc. (1-time saturating concentration)", "setting": "CD46, human (human) [7]", "value": 0.2, "unit": "µg/mL"}, {"measurement": "Geom. Mean. FITC (geom. mean FITC)", "setting": "CD46, human (human) [16]", "value": 87600}, {"measurement": "Geom. Mean. FITC (geom. mean FITC)", "setting": "CD46, human (human) [17]", "value": 79500}, {"measurement": "Geom. Mean. FITC (geom. mean FITC)", "setting": "CD46, human (human) [18]", "value": 75200}, {"measurement": "Geom. Mean. FITC (geom. mean FITC)", "setting": "CD46, human (human) [19]", "value": 66400}]}
{"substance": "anti-human CD55 antibody #387, clone BRIC216 (AbD Serotec, MCA914)", "values": [{"measurement": "Geom. Mean. FITC (geom. mean FITC)", "setting": "CD55, human (human) [20]", "value": 24100}, {"measurement": "Geom. Mean. FITC (geom. mean FITC)", "setting": "CD55, human (human) [21]", "value": 25200}, {"measurement": "1x conc. (1-time saturating concentration)", "setting": "CD55, human (human) [22]", "value": 0.1, "unit": "µg/mL"}, {"measurement": "Geom. Mean. FITC (geom. mean FITC)", "setting": "CD55, human (human) [23]", "value": 32000}, {"measurement": "Geom. Mean. FITC (geom. mean FITC)", "setting": "CD55, human (human) [24]", "value": 26900}, {"measurement": "Geom. Mean. FITC (geom. mean FITC)", "setting": "CD55, human (human) [25]", "value": 25100}, {"measurement": "Geom. Mean. FITC (geom. mean FITC)", "setting": "CD55, human (human) [26]", "value": 23700}]}
{"substance": "anti-human CD59 antibody #384, clone MEM43 (antibodies online, ABIN118751)", "values": [{"measurement": "Geom. Mean. FITC (geom. mean FITC)", "setting": "CD59, human (human) [27]", "value": 82400}, {"measurement": "Geom. Mean. FITC (geom. mean FITC)", "setting": "CD59, human (human) [28]", "value": 95500}, {"measurement": "1x conc. (1-time saturating concentration)", "setting": "CD59, human (human) [29]", "value": 0.2, "unit": "µg/mL"}, {"measurement": "Geom. Mean. FITC (geom. mean FITC)", "setting": "CD59, human (human) [30]", "value": 95200}, {"measurement": "Geom. Mean. FITC (geom. mean FITC)", "setting": "CD59, human (human) [31]", "value": 95500}, {"measurement": "Geom. Mean. FITC (geom. mean FITC)", "setting": "CD59, human (human) [32]", "value": 95500}, {"measurement": "Geom. Mean. FITC (geom. mean FITC)", "setting": "CD59, human (human) [33]", "value": 94000}]}
{"substance": "anti-human CD59 antibody #385, clone YTH53.1 (AbD Serotec, MCA715G)", "values": [{"measurement": "Geom. Mean. PE (geom. mean PE)", "setting": "CD59, human (human) [27]", "value": 50100}, {"measurement": "Geom. Mean. PE (geom. mean PE)", "setting": "CD59, human (human) [28]", "value": 62700}, {"measurement": "1x conc. (1-time saturating concentration)", "setting": "CD59, human (human) [29]", "value": 0.1, "unit": "µg/mL"}, {"measurement": "Geom. Mean. PE (geom. mean PE)", "setting": "CD59, human (human) [30]", "value": 55400}, {"measurement": "Geom. Mean. PE (geom. mean PE)", "setting": "CD59, human (human) [31]", "value": 64200}, {"measurement": "Geom. Mean. PE (geom. mean PE)", "setting": "CD59, human (human) [32]", "value": 60500}, {"measurement": "Geom. Mean. PE (geom. mean PE)", "setting": "CD59, human (human) [33]", "value": 53800}]}
